Assay [1] addresses T1, HER2-ECD (ELISA antigen of Examples 13 and 14) (human, UniProt P04626 23-652).
T1 construct: extracellular domain
The assay can be described thus: ELISA, periplasmic extract on HER2-ECD.

In another assay the target is T2, HER2-ECD-His protein (human, UniProt P04626 23-652).
T2 construct: extracellular domain; not shown: His tag
Nature of the assay: SPR, IgG captured by goat anti-human IgG on CM5, HER2-ECD-His analyte. Here is the method: The goat anti-human IgG (Invitrogen, #H10500) at a concentration of 2000 RU was immobilized to a CM5 sensor chip via ECD/NHS method. Then, the antibodies were allowed to bind at a rate of 50 μL/min for 5 minutes, and allowed the buffer to flow thereonto for 5 minutes for stabilization purpose. […] After analyzing each of the concentrations, they were recycled using 10 mM Glycine (pH 1.5) and performed the subsequent assays. The affinities of the antibodies were analyzed via BIAevaluation software.

Where a chain is given by its changes, count along the chain named.

B1: hz1E11 CDR-H3 H95A (antibody, name in Kabat numbering, V domains shown)
VH: EVQLVESGGGLVQPGGSLRLSCAASGFTFSSYTMSWVRQAPGKGLEWVAYISNGGGSTYYPDTVKGRFTISRDNAKNSLYLQMNSLRAEDTAVYYCARALGGTASFDYWGQGTLVTVSS
VL: DIQMTQSPSSLSASVGDRVTITCLASQTIGTWLAWYQQKPGKAPKLLIYVATSLADGVPSRFSGSGSGTDFTLTISSLQPEDFATYYCQQLYSTPWTFGQGTKVEIK
notes: Alanine scanning variant, expressed in bacteria, periplasmic extract
For B1, in assay [1], the binding result was “binds”.

B2: hz1E11 CDR-L3 Q90A (antibody, V domains shown)
VH: B1 VH with A99H
VL: B1 VL with Q90A
notes: as for B1
Take B2: in assay [1], the binding result was “binds”.

B3: hz1E11-154 (IgG) (antibody, V domains shown)
VH: B1 VH with A99H
VL: B1 VL with L91T, Y92A, S93F, T94S
notes: heavy chain variable region the same as hz1E11
With B3, in the assay with HER2-ECD-His protein, the Kd was found to be 1.1 nM, the “fold decrease in Koff (kd) compared to hz1E11” value amounted to 8.4 fold, the “fold improvement of affinity compared to hz1E11” value worked out at 20 fold and the koff turned out to be 9.9e-05 s⁻¹. In the assay with HER2-ECD-His protein, this molecule had a kon of 86000 M⁻¹ s⁻¹.

B4: hz1E11-133 (IgG) (antibody, V domains shown)
VH: B1 VH with A99H
VL: B1 VL with L91N, Y92A, S93Y, T94A
notes: as for B3
Consider B4, for which, in the assay with HER2-ECD-His protein, the Kd came out at 1.5 nM, the “fold decrease in Koff (kd) compared to hz1E11” value was found to be 8.4 fold, the “fold improvement of affinity compared to hz1E11” value is 15 fold and the koff came to 9.9e-05 s⁻¹. The same molecule had a kon with HER2-ECD-His protein of 64000 M⁻¹ s⁻¹.

B5: hz1E11-3 (IgG) (antibody, V domains shown)
VH: B1 VH with A99H
VL: B1 VL with Q89D, L91M
notes: as for B3
For B5, in the assay with HER2-ECD-His protein, the Kd is 5.2 nM, the koff amounted to 0.0002 s⁻¹ and the kon turned out to be 38000 M⁻¹ s⁻¹.

B6: hz1E11 CDR-L3 T94A (antibody, V domains shown)
VH: B1 VH with A99H
VL: B1 VL with T94A
notes: as for B1
As for B6, in assay [1], the binding result is reported as “binds”.

B7: hz1E11 CDR-L3 Q89A (antibody, V domains shown)
VH: B1 VH with A99H
VL: B1 VL with Q89A
notes: as for B1
For B7, the binding result in assay [1] is “binds”.

B8: hz1E11 CDR-H3 T99A (antibody, name in Kabat numbering, V domains shown)
VH: B1 VH with A99H, T103A
VL: B1 VL
notes: as for B1
As to B8, the binding result in assay [1] was “binds”.

B9: hz1E11 CDR-L3 L91A (antibody, V domains shown)
VH: B1 VH with A99H
VL: B1 VL with L91A
notes: as for B1
Consider B9, for which the binding result in assay [1] was “binds”.

B10: hz1E11 CDR-L3 S93A (antibody, V domains shown)
VH: B1 VH with A99H
VL: B1 VL with S93A
notes: as for B1
For the molecule B10, the binding result in assay [1] was “binds”.

B11: hz1E11 CDR-H3 L96A (antibody, name in Kabat numbering, V domains shown)
VH: B1 VH with A99H, L100A
VL: B1 VL
notes: as for B1
Take B11: the binding result in assay [1] is recorded as “binds”.

B12: hz1E11 CDR-L3 Y92A (antibody, V domains shown)
VH: B1 VH with A99H
VL: B1 VL with Y92A
notes: as for B1
For B12, the binding result in assay [1] was “binds”.

B13: hz1E11 CDR-H3 S100aA (antibody, name in Kabat numbering, V domains shown)
VH: B1 VH with A99H, S105A
VL: B1 VL
notes: as for B1
B13: in assay [1], the binding result is given as “binds”.

The record behind these values is patent publication US20160053011A1 (ABCLON, published 2016).
